# The DeepSol protein solubility set
# Assay: soluble on expression in E. coli; label from the status in PepcDB or PDB records
row,Sequence,soluble on expression in E. coli
1,ASNIYKIKEENKNEDICFIAGIGDTNGYGWGIAKELSKRNVKIIFGIWPPVYNIFMKNYKNGKFDNDMIIDKDKKMNILDMLPFDASFDTANDIDEETKNNKRYNMLQNYTIEDVANLIHQKYGKINMLVHSLANAKEVQKDLLNTSRKGYLDALSKSSYSLISLCKYFVNIMKPQSSIISLTYHASQKVVPGYGGGMSSAKAALESDTRVLAYHLGRNYNIRINTISAGPLKSRAATAINKLNNTYENNTNQNKNRNSHDVHNIMNNSGEKEEKKNSASQNYTFIDYAIEYSEKYAPLRQKLLSTDIGSVASFLLSRESRAITGQTIYVDNGLNIMFLPDDIYRNENE,soluble
2,ASQKVEKTVIKNETGTISISQLNKNVWVHTELGSFNGEAVPSNGLVLNTSKGLVLVDSSWDDKLTKELIEMVEKKFQKRVTDVIITHAHASRIGGIKTLKERGIKAHSTALTAELAKKNGYEEPLGDLQTVTNLKFGNMKVETFYPGKGHTEDNIVVWLPQYNILVGGCLVKSTSAKDLGNVADAYVNEWSTSIENVLKRYRNINAVVPGHGEVGDKGLLLHTLDLLK,soluble
3,ASSPANKVYQDRFESMYSKIKDPANGYFSEQGIPYHSIETLMVEAPDYGHVTTSQAMSYYMWLEAMHGRFSGDFTGFDKSWSVTEQYLIPTEKDQPNTSMSRYDANKPATYAPEFQDPSKYPSPLDTSQPVGRDPINSQLTSAYGTSMLYGMHWILDVDNWYGFGARADGTSKPSYINTFQRGEQESTWETIPQPCWDEHKFGGQYGFLDLFTKDTGTPAKQFKYTNAPDADARAVQATYWADQWAKEQGKSVSTSVGKATKMGDYLRYSFFDKYFRKIGQPSQAGTGYDAAHYLLSWYYAWGGGIDSTWSWIIGSSHNHFGYQNPFAAWVLSTDANFKPKSSNGASDWAKSLDRQLEFYQWLQSAEGAIAGGATNSWNGRYEAVPSGTSTFYGMGYVENPVYADPGSNTWFGMQVWSMQRVAELYYKTGDARAKKLLDKWAKWINGEIKFNADGTFQIPSTIDWEGQPDTWNPTQGYTGNANLHVKVVNYGTDLGCASSLANTLTYYAAKSGDETSRQNAQKLLDAMWNNYSDSKGISTVEQRGDYHRFLDQEVFVPAGWTGKMPNGDVIKSGVKFIDIRSKYKQDPEWQTMVAALQAGQVPTQRLHRFWAQSEFAVANGVYAILFPD,soluble
4,ASTLGFKARIHMSHDATDWKINKLLQNGVEVKIYDDNFSNAVAAARVSSQRDPYSYFIDDEGSKLLFAGYATAGERVKKQLSKMQIEVSKEHPLVVYLPAGVGGSPSGVAFGLKLQFADAVIPIFVEPTHMPSVLLGMASGLNHDISVYDIGIDGKTAADGLAVGRPSMIAGKYMKDKLFGIATVSDSDMFAYQGMLKKLENIEVEPSAAVGIRGLIQSKEISEIPDSATHMVWATGGSMVPKNTMHKYEDKAVRIFNTWKS,not soluble
5,ASTRNLMIEGENLEVLKLLQKSYAGRAKLVYIDPPYNTGKDFVYSDNFTDSLRHYLELTGQTTDGKRISSHTDASGRFHTDWLNMIYPRLKLARDLLADDGVIAVHIDEHEQHALVLVMREIFGEDNELGVAVWDKRNPKGDARGIAYQHESIVLFARDAQLLFERAPLKRPKRNAQRMLDAARGAIAGAATIADANAAYRAWVKSQTTLSGGEAMYDRISADGRVYRLVSMAWPNKKKAPDDYFVPLVHPVTGKPCPVPERGWRNPPATMQALIDKGLVEFGADETTQPQRIYFLDENMYENVPSVLPFGGSDDALMKSLGIPFDQPKPVEFAASIIGWCTDGDDLIVDFFGGSGTTGHAVMALNAADGGNRRYVLVQLPEPLDAGSKDQKAAADFCAAQRVPLNLAELTKERLRRAAARVAAEHPGTR,soluble
6,ASYWSLQDILLRQGYRENLHPDDLIEGYRELLADSVHRCLQSDVEVGLFLSGGIDSAAVAHFAAEKQDLHTFTVLSQSTFTNEDAKYAHWLAKDLHLPNHQVLYQLGNDELLQPESYKHLLWICETPFCGPEQLYKFHLHKYAKAIRPNLKVMLTGQGSDEFNGGYSTTLSPAENPSWEGFIESVNTMEMNRLHRLQGNIFRVWEEHFGLSPINLSYLKSNDSSQADPWQSYVLTKYRDLQMYNCWHEDRIAAANHIENRVPFLDHRLVEWVCGIPDGLRKDLLWDKSVLRKSLTNELHTSYTHRPKVPFFYGKDVRYTHKMMFHLLKKNNYQLIEEAFSHSDASSIIQVEHIHAIM,not soluble
7,ATGDTAATAAPAKAEKTAGSVLRDAKRVIIVPGYGMALAQAQHQVRQLADKLTANGTEVRYAIHPVAGRMPGHMNVLLCEADVPYDQLFEMDAINGDFAQTDAVVVIGANDVMNPAARNAEGTPIYGMPVLNVDDAPEVIICNFDLKPGYAGVDNPLYTRATGVFLKLGDAKESLAEIMKEMDIA,not soluble
8,ATPALRFVAVGDWGGVPNAPFHTAREMANAKEIARTVQILGADFILSLGDNFYFTGVQDINDKRFQETFEDVFSDRSLRKVPWYVLAGNHDHLGNVSAQIAYSKISKRWNFPSPFYRLHFKIPQTNVSVAIFMLDTVTLCGNSDDFLSQQPERPRDVKLARTQLSWLKKQLAAAREDYVLVAGHYPVWSIAEHGPTHCLVKQLRPLLATYGVTAYLCGHDHNLQYLQDENGVGYVLSGAGNFMDPSKRHQRKVPNGYLRFHYGTEDSLGGFAYVEISSKEMTVTYIEASGKSLFKTRLPRRARP,soluble
9,ATQGRLRRRPEGARVPSARRGRPRARWRAPQNNPEVDSIMAELKVEAPASVDWQKRCLTLETQLFRFRLQASKIRELLADKMQELEQRLLEAEQRAENAETQVGVMEEKVKLSNLKNVDSEGSLHRKYQELLKAIKGKDELISQLEAQLEKQKQMRAEEAKTVQEKAAKIKEWVTLKLAKLEMENQHLKSHNQRLVEQVGSLQDALEAIQIAPSRKLLVPPYGAAEQDSVPSEPGIQPMGQDSGSQAQGLKAAVLAPSPGALQSKDSVSEAASPLEDSSSSTVHSGETVEAKPLQPHLGRESPPHQPCMKLLTFRCSSASWGEGLVTAQRGMLPGTKTSAREGGPGSSLTLPKVRAPGTPRDSIQLAKRHHSQPQVGHGHFGRVVNIETEAFSALHPSGLPELESRARSREEPEKMEMEEPPPAGKNEERESPKALGAELEEVELGNKPPTPPLHQFSSWESRIYAVATSGMRLSDMSPRSNTACCASSPPALVSPGSFSGLVYKNVTVPVYTALKGRATQISNMPFMDESSGSDDDCSSQASFRISVPSSESRKTSGLGSPRAIKRGVSMSSLSSEGDYAIPPDACSLDSDYSEPEHKLQRTSSYSTDGLGLGGESLEKSGYLLKMGSQVKTWKRRWFVLRQGQIMYYKSPSDVIRKPQGQVDLNSRCQIVRGEGSQTFQLISEKKTYYLTADSPSLLEEWIRVLQSLLKVQATGPPALLRGGTKPTVKGWLTKVKHGHSKVVWCALVGKIFYYYRSHEDKRPLGCLPVRDAHIEEVDRSCDSDEDYEAGGTRRLLSSHCTLVIHPTEHSPTYLLIGTKHEKDTWLYHLTVAAGGSSAKVGTAYEQLIGKLMDGEGDPDSPLWRHPMLCYSKDGLYASLTTLPSEALQTEALKLFKSCQLFINVPVEAASVDYHVSLAQTALQVCLVHPELQSEIYCQLMKQTSCRPPQKYSLMQCWQLLALCAPLFLPQHHFLWYVKQQLQRHADPRSETGQYATYCQRAVERTLRTGEREARPSRMEVVSILLRNPFHHSLPFSIPVHFTNGTYHVVGFDGSSTVDEFLQRLNQEIGMRKPSHSGFALFTDDPSGRDLEHCLQGSVKICDAISKWEQAMKELHPGKSEGGTRVVKLMYKNRLYFRSQVKGETDRERLLLASQTSREIVAGRFPINKELALEMAALMAQVEYGDLEKPALPGPGGTSPAKAQHLLQQVLDRFHPRRYRHGAPAEQLRHLADMLTTKWATLQGCSPPECIRIYLTVARKWPFFGAKLFAAQPAQLSSKENALVWIAVNEDGVSILDHNTMQVHITYPYSSVTTFGGCRDDFMLVIRSIPDKSSGKSHIEKLIFRMAAPKIAEATFIMASYMNHCTTTVNPPTNPPGACQLWELDGRQFFSSVSCATKGPTLL,soluble
10,ATRRRSLSCYVWIATFGMRYTHEFNKVIRDYVRGHASQIRKRLLPKALEVFASHRIAGDCVVVATGAPPELVREILALVADQQEVVPVIGSSIVPRLGAIIVARHCHHEEKMRMLREQGYGDVAVAYSDSTADLPLLMAAKVPVVVNPKPKREKLFRRVLQP,not soluble
11,ATTGTQGYTVVKNDWKKAVKQLQDGLKDNSIGKITVSFNDGVVGEVAPKSANKKADRDAAAEKLYNLVNTQLDKLGDGDYVDFSVDYNLENKIITNQADAEAIVTKLNSLNEKTLIDIATKDTFGMVSKTQDSEGKNVAATKALKVKDVATFGLKSGGSEDTGYVVEMKAGAVEDKYGKVGDSTAGIAINLPSTGLEYAGKGTTIDFNKTLKVDVTGGSTPSAVAVSGFVTKDDTDLAKSGTINVRVINAKEESIDIDASSYHMSLEHHHHHH,soluble
12,ATTYNAVVSKSSSDGKTFKTIADAIASAPAGSTPFVILIKNGVYNERLTITRNNLHLKGESRNGAVIAAATAAGTLKSDGSKWGTAGSSTITISAKDFSAQSLTIRNDFDFPANQAKSDSDSSKIKDTQAVALYVTKSGDRAYFKDVSLVGYQATLYVSGGRSFFSDCRISGTVDFIFGDGTALFNNCDLVSRYRADVKSGNVSGYLTAPSTNINQKYGLVITNSRVIRESDSVPAKSYGLGRPWHPTTTFSDGRYADPNAIGQTVFLNTSMDNHIYGWDKMSGKDKNGNTIWFNPEDSRFFEYKSYGAGATVSKDRRQLTDAQAAEYTQSKVLGDWTPTLP,soluble
13,AVSFIGSTENDVGPSQGSYSSTHAMDNLPFVYNTGYNIGYQNANVWRISGGFCVGLDGKVDLPVVGSLDGQSIYGLTEEVGLLIWMGDTNYSRGTAMSGNSWENVFSGWCVGNYVSTQGLSVHVRPVILKRNSSAQYSVQKTSIGSIRMRPYNGSSAGSVQTTVNFSLNPFTLNDTVT,soluble
14,AYPHIFGNLGVFSLASWFSERDFLRFLNHHPLDKNSKVFIQVGTKEGDAVDDEFAPNMNQAYIDCTLHYYQSLLRTGHPMEHIDLHIMANEIHHEKYWANHFIEFLKFTLK,not soluble
15,CIGLVNPKTPENVGSVMRAAGCYGVNSVFYTGKRYDIAKQFCTDTKSQHLNLPLIGVEDLRDIVPLDCVPVAVDLIEGAKPLPDYKHPPRAFYIFGPEDGTLKKEITDFCRETIYVPTNGCMNLAAAVNVIMYDRMAK,not soluble
16,CPECDEPLHYIRDAVSEKLEYIPAHFVVNRYVRPQYSCPCCQKVFSGEMPAHILPKSAVEPSVIAQVIINKYGDHLPLYRQQQVFARSDVGLPVSSMADMVGAAGAALSPLAALLHRELINRPVVHADETTLKILNTKKGGKSCSGYLWAYVSGERTGPSVVCFDCRTGRSHEYPENWLQGWGGTLVVDGHKAYRTLANKV,not soluble
17,DAAVTPEERHLSKMQQNGYENPTYKFFEQMQNSGPSSGIEGRGSSGSSGSSGSSGPTPKTELVQKFRVQYLGMLPVDRPVGMDTLNSAIENLMTSSSKEDWPSVNMNVADATVTVISEKNEEEVLVECRVRFLSFMGVGKDVHTFAFIMDTGNQRFECHVFWCEPNAANVSEAVQAAC,soluble
18,DDRGDFALVAGDALPQFSVEMSDGGVLNTQSFSGKVGVIVFFHTDCPDCQKELPVIQKVYDTYKENPDVLLSCISRSESGSEVQAYWEKHSFSLPFSAQNDDAVFSLFASHTIPRILITDKEGIIRAVYTDDPLATYQELAKDIDAVL,soluble
19,DDVPPRIARAMENEEYWDFDIFELEAATHNRPLIYLGLKMFARFGICEFLHCSESTLRSWLQIIEANYHSSNPYHNSTHSADVLHATAYFLSKERIKETLDPIDEVAALIAATIHDVDHPGRTNSFLCNAGSELAILYNDTAVLESHHAALAFQLTTGDDKCNIFKNMERNDYRTLRQGIIDMVLATEMTKHFEHVNKFVNSINKPLATLEENGETDKNQEVINTMLRTPENRTLIKRMLIKCADVSNPCRPLQYCIEWAARISEEYFSQTDEEKQQGLPVVMPVFDRNTCSIPKSQISFIDYFITDMFDAWDAFVDLPDLMQHLDNNFKYWKGLDEM,soluble
